Laboratory results: patent US12285465B2, “Combined treatment of primary central nervous system lymphoma” (FONDAZIONE CENTRO SAN RAFFAELE, priority 2018, dated 2025)
Entries after “also recorded” stand apart in the source; their conditions may differ.

Columns and labels:
[1] = INGRID phase II trial: toxicity graded by NCI-NCIC CTC version 3.0; type: in vivo; conditions: of 132 delivered courses; fever, chills, arterial hypertension
Procedure: Treatment side effects were assessed separately for each chemotherapy course and graded according to the NCI-NCIC CTC version 3·0^19. The worst toxicity per organ, per patient was considered. Periodic specialist controls, ECG, troponin levels determination, and echocardiography were performed before every treatment course to exclude cardiac toxicity. The impact of treatment on cognitive functions was not assessed by ad hoc tests.
Duration of response, PFS, OS, and tolerability were the secondary endpoints. Duration of response was defined as the time from the first assessment that documents the response to the date of relapse, date of death from any cause or date of the last visit of follow-up. PFS was defined as the interval between the time of entry onto trial and failure (relapsing or progressive disease), death from any cause or date of the last visit of follow-up. OS was defined as the time from entry onto trial until death from any cause or date of the last visit of follow-up. Tolerability was defined by of grade 3-4 AEs according to NCI CTCAE^19.

[2] = test system: BBB permeability in lymphomatous lesions and perilesional area; assay: BBB permeability assessed by DCE-MRI (Ktrans); type: in vivo, human; conditions: tumoral/peritumoral areas
Procedure: Variations induced by NGR-hTNF in the BBB permeability at the level of the lymphomatous lesions, areas surrounding the tumor (perilesional area) and in the normal-appearing brain parenchyma were assessed by DCE-MRI. DCE acquisition followed a standard protocol^28 that included also conventional T1, T2, Flair, DWI and Dynamic Susceptibility Contrast Perfusion (DSC) sequences. […] In cases of multiple lesions, the largest one was considered. Post-processing of DCE-MRI was performed using Olea software (La Ciotat, France); all dynamic images were corrected for motion artifacts and co-registered to a volumetric post-contrast T1 sequences. Results were expressed as Ktrans values normalized using contralateral white matter. Ktrans obtained after the 2nd course (measured after NGR-hTNF infusion) were compared with those obtained after the 1st course (without NGR-hTNF) to establish the effect of TNF on BBB permeabilization. Statistically significance was assessed by Wilcoxon matched pairs test.

For “NGR-hTNF: genetically engineered protein consisting of CNGRCG fused to the N-terminus of human tumor necrosis factor alpha (SEQ ID No. 1), expressed in E. coli”, the “TNF Infusion reaction Grade 1-2 (number of courses)” value [1] was “nine” and the “vascular permeability (DCE-MRI, SPECT)” value [2] was “selectively increased vascular permeability in tumoral/peritumoral areas; also recorded: vascular permeability was increased”.
